Columns and labels:
DcR3 = DcR3 (UniProt O95407); test: ELISA; receptor (DR3-Fc; DcR3) immobilised on Maxisorp plates, TL1A variant titrated in 3-fold dilutions, overnight 4 °C, detected with anti-human TL1A-biotin and streptavidin-HRP; concentrations normalised to TL1A trimer; triplicate
Recombinant DR3-Fc [1] = molecular target: Recombinant DR3-Fc (UniProt Q93038); test: as above
Recombinant DR3-Fc [2] = molecular target: Recombinant DR3-Fc (UniProt Q93038); test: ELISA; DR3-Fc immobilised non-specifically on Maxisorp plates (overnight, 4 °C), casein block; TL1A added in 3-fold dilutions, overnight 4 °C; bound TL1A detected with polyclonal rabbit anti-human TL1A-biotin and streptavidin-HRP; concentrations normalised to TL1A trimers; triplicate

Recombinant DR3-Fc, sequence (Q93038 25-199): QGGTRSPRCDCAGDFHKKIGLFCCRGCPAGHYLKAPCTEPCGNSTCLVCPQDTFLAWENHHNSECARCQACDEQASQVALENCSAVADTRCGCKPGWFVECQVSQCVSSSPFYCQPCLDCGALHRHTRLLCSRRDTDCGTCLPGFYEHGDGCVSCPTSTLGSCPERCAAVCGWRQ
DcR3, sequence (O95407 30-300): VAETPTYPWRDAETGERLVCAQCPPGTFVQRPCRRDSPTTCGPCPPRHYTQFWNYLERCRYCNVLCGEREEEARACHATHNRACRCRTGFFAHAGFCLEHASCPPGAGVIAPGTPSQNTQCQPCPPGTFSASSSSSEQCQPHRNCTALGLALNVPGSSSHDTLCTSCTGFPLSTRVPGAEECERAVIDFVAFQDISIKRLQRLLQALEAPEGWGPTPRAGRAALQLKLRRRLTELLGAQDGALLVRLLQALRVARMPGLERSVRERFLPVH

| Substance | EC50 (DcR3) | EC50 (Recombinant DR3-Fc [1]) | EC50 (Recombinant DR3-Fc [2]) |
| --- | --- | --- | --- |
| TL1W27 (T239E) (from UniProt O95150 1-251) (ligand) | 34.3 nM | – | – |
| TL1W90 (R156K) (from UniProt O95150 1-251) (ligand) | 11 nM | 188 nM | – |
| TL1W87 (G124D) (from UniProt O95150 1-251) (ligand) | – | 14.8 nM | – |
| TL1W98 (K173R) (from UniProt O95150 1-251) (ligand) | 27.8 nM | 2050 nM | – |
| TL1W106 (T185D) (from UniProt O95150 1-251) (ligand) | 79.9 nM | 124 nM | – |
| TL1W117 (T192E) (from UniProt O95150 1-251) (ligand) | 12 nM | 113 nM | – |
| TL1W86 (G124K) (from UniProt O95150 1-251) (ligand) | 2.9 nM | – | – |
| TL1W128 (Y238S) (from UniProt O95150 1-251) (ligand) | 10.5 nM | – | – |
| Fc-His-TL1A (TL1W61) (complex) | – | – | 10.2 nM |
| TL1W129 (Y238K) (from UniProt O95150 1-251) (ligand) | 9 nM | 446 nM | – |
| TL1W110 (S187K) (from UniProt O95150 1-251) (ligand) | 15.8 nM | 33.7 nM | – |
| TL1W97 (K173S) (from UniProt O95150 1-251) (ligand) | 6.7 nM | 131 nM | – |
| TL1W131 (Y238E) (from UniProt O95150 1-251) (ligand) | 6.6 nM | 300 nM | – |
| TL1W107 (D186Y) (from UniProt O95150 1-251) (ligand) | 6.2 nM | 63.8 nM | – |
| TL1W111 (S187D) (from UniProt O95150 1-251) (ligand) | 16.7 nM | 44.2 nM | – |
| TL1W46 (T239W) (from UniProt O95150 1-251) (ligand) | – | 284 nM | – |
| TL1W94 (M158E) (from UniProt O95150 1-251) (ligand) | 18.7 nM | 58.7 nM | – |
| TL1W33 (E241L) (from UniProt O95150 1-251) (ligand) | 5.7 nM | – | – |
| TL1W32 (Y188A) (from UniProt O95150 1-251) (ligand) | 7.6 nM | 565 nM | – |
| TL1W28 (E190G) (from UniProt O95150 1-251) (ligand) | 5.7 nM | 22.6 nM | – |
| TL1W118 (S206A) (from UniProt O95150 1-251) (ligand) | 8.8 nM | 41.7 nM | – |

| Substance | EC50 (DcR3) | EC50 (Recombinant DR3-Fc [1]) | EC50 (Recombinant DR3-Fc [2]) |
| --- | --- | --- | --- |
| TL1W135 (K240A) (from UniProt O95150 1-251) (ligand) | 8.5 nM | – | – |
| TL1W103 (T185A) (from UniProt O95150 1-251) (ligand) | 11.5 nM | 57.9 nM | – |
| TL1W30 (N112E) (from UniProt O95150 1-251) (ligand) | 4.7 nM | 16.4 nM | – |
| TL1W125 (N207E) (from UniProt O95150 1-251) (ligand) | 9.8 nM | 506 nM | – |
| TL1W123 (N207S) (from UniProt O95150 1-251) (ligand) | 8.6 nM | 26.8 nM | – |
| TL1W134 (T239K) (from UniProt O95150 1-251) (ligand) | 21.5 nM | – | – |
| TL1W115 (T192F) (from UniProt O95150 1-251) (ligand) | 10.6 nM | 14.2 nM | – |
| TL1W100 (S176L) (from UniProt O95150 1-251) (ligand) | 15 nM | 324 nM | – |
| TL1W139 (E241Q) (from UniProt O95150 1-251) (ligand) | 17.3 nM | – | – |
| TL1W119 (S206F) (from UniProt O95150 1-251) (ligand) | 8.1 nM | 87.5 nM | – |
| TL1W124 (N207k) (from UniProt O95150 1-251) (ligand) | 15.4 nM | 110 nM | – |
| TL1W112 (P189F) (from UniProt O95150 1-251) (ligand) | 66.1 nM | 202 nM | – |
| TL1W102 (S176K) (from UniProt O95150 1-251) (ligand) | 29.2 nM | 182 nM | – |
| TL1W47 (E241A) (from UniProt O95150 1-251) (ligand) | 1310 nM | 260 nM | – |
| TL1W41 (E120A) (from UniProt O95150 1-251) (ligand) | 32.6 nM | 100 nM | – |
| His-scTL1A TL1W19 (from UniProt O95150 84-251; O95150 84-251; O95150 84-251) (ligand) | – | – | 27.3 nM |
| TL1W31 (R103Q) (from UniProt O95150 1-251) (ligand) | 2.5 nM | 9.5 nM | – |
| TL1W104 (T185L) (from UniProt O95150 1-251) (ligand) | 19.3 nM | 49.4 nM | – |
| TL1W132 (T239A) (from UniProt O95150 1-251) (ligand) | 27.2 nM | 144 nM | – |
| TL1W114 (T192A) (from UniProt O95150 1-251) (ligand) | 10 nM | 23.3 nM | – |
| TL1W105 (T185N) (from UniProt O95150 1-251) (ligand) | 11.3 nM | 180 nM | – |

Continued, values first:

| EC50 (DcR3) | EC50 (Recombinant DR3-Fc [1]) | EC50 (Recombinant DR3-Fc [2]) | Substance |
| --- | --- | --- | --- |
| 10.8 nM | – | – | TL1W133 (T239F) (from UniProt O95150 1-251) (ligand) |
| 57.1 nM | 296 nM | – | TL1W85 (G124S) (from UniProt O95150 1-251) (ligand) |
| 59.5 nM | – | – | TL1W138 (K240D) (from UniProt O95150 1-251) (ligand) |
| 19.8 nM | 1000 nM | – | TL1W113 (P189S) (from UniProt O95150 1-251) (ligand) |
| 7.6 nM | 710 nM | – | TL1W29 (P189A) (from UniProt O95150 1-251) (ligand) |
| 38.2 nM | 184 nM | – | TL1W39 (L123G) (from UniProt O95150 1-251) (ligand) |
| – | – | 29.2 nM | HSA-scTL1A (TL1W15) (from UniProt O95150 84-251; O95150 84-251; O95150 84-251) (ligand) |
| 11.8 nM | 336 nM | – | TL1W137 (K240S) (from UniProt O95150 1-251) (ligand) |
| 7.1 nM | 204 nM | – | TL1W79 (R103E) (from UniProt O95150 1-251) (ligand) |
| 50.9 nM | 34.4 nM | – | TL1W81 (K111S) (from UniProt O95150 1-251) (ligand) |
| 91 nM | 114 nM | – | TL1W120 (S206K) (from UniProt O95150 1-251) (ligand) |
| 11.4 nM | 77.7 nM | – | TL1W42 (F114A) (from UniProt O95150 1-251) (ligand) |
| 16.4 nM | 30.7 nM | – | TL1W40 (L123S) (from UniProt O95150 1-251) (ligand) |
| – | 39.1 nM | – | TL1W108 (S187A) (from UniProt O95150 1-251) (ligand) |
| 72.2 nM | 207 nM | – | TL1W43 (Y188S) (from UniProt O95150 1-251) (ligand) |
| 17.2 nM | 105 nM | – | TL1W121 (S206E) (from UniProt O95150 1-251) (ligand) |
| 8 nM | – | – | TL1W89 (R156Y) (from UniProt O95150 1-251) (ligand) |
| 8.9 nM | 4620 nM | – | TL1W127 (Y238A) (from UniProt O95150 1-251) (ligand) |
| 8.3 nM | – | – | TL1W91 (R156E) (from UniProt O95150 1-251) (ligand) |

| EC50 (DcR3) | EC50 (Recombinant DR3-Fc [1]) | EC50 (Recombinant DR3-Fc [2]) | Substance |
| --- | --- | --- | --- |
| 16.4 nM | 87 nM | – | TL1W96 (R170E) (from UniProt O95150 1-251) (ligand) |
| 8.1 nM | 77.2 nM | – | TL1W78 (R103H) (from UniProt O95150 1-251) (ligand) |
| 3.7 nM | 13.4 nM | – | TL1W25 (N207A) (from UniProt O95150 1-251) (ligand) |
| 24.3 nM | 423 nM | – | TL1W37 (L123E) (from UniProt O95150 1-251) (ligand) |
| 30.7 nM | 281 nM | – | TL1W24 (F209A) (from UniProt O95150 1-251) (ligand) |
| 16.9 nM | – | – | TL1W130 (Y238R) (from UniProt O95150 1-251) (ligand) |
| 59.1 nM | 168 nM | – | TL1W44 (P189K) (from UniProt O95150 1-251) (ligand) |
| 2.2 nM | – | – | TL1W83 (E120K) (from UniProt O95150 1-251) (ligand) |
| 20.4 nM | – | – | TL1W101 (S176N) (from UniProt O95150 1-251) (ligand) |
| 55.9 nM | 22.5 nM | – | TL1W93 (M158K) (from UniProt O95150 1-251) (ligand) |
| 13.5 nM | – | – | TL1W88 (R156A) (from UniProt O95150 1-251) (ligand) |
| 178 nM | 266 nM | – | TL1W136 (K240F) (from UniProt O95150 1-251) (ligand) |
| 13.7 nM | 56.8 nM | – | TL1W126 (F209W) (from UniProt O95150 1-251) (ligand) |
| 3.3 nM | 25 nM | – | TL1W33 (R103A) (from UniProt O95150 1-251) (ligand) |
| 10.6 nM | 25.8 nM | – | TL1W82 (K111E) (from UniProt O95150 1-251) (ligand) |
| 23.3 nM | 77 nM | – | TL1W116 (T192K) (from UniProt O95150 1-251) (ligand) |
| 55.7 nM | 182 nM | – | TL1W84 (E120H) (from UniProt O95150 1-251) (ligand) |
| 11.5 nM | 34.8 nM | – | TL1W99 (S176A) (from UniProt O95150 1-251) (ligand) |

Reference: article PMC9709071
